From patent US20070065429A1, “Nogo-receptor antagonists for the treatment of conditions involving amyloid plaques” (Biogen Idec MA Inc., priority 2003, published 2007) come the findings set out here.

Experiment [1] deals with T1, human NgR1 (Homo sapiens, UniProt Q9BZR6).
T1 construct: expressed in transfected cells; host or cells: SKNMC cells
T1 sequence (Q9BZR6 27-447): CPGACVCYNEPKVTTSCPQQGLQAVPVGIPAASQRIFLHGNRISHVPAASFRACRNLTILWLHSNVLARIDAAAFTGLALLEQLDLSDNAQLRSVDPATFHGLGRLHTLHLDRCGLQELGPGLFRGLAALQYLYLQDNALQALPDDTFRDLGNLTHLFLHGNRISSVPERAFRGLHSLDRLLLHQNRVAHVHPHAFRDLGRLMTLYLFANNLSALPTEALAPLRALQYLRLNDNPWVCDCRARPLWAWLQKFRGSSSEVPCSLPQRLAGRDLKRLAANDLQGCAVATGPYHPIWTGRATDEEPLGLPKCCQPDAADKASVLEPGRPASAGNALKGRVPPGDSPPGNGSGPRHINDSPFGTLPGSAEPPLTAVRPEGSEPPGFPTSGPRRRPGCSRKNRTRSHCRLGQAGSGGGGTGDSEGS
Briefly: Aβ42 effect on Biotin-Aβ40 binding to SKNMC cells expressing human NGR1. To be noted: SKNMC cells expressing human NGR1, dose-dependent.

The target in experiment [2] is T2, sNgR310 (Rattus norvegicus, UniProt Q99M75, A303T/C287S/C43R/E284G/T53A).
T2 sequence (Q99M75 27-310 C43R/T53A/E284G/C287S/A303T): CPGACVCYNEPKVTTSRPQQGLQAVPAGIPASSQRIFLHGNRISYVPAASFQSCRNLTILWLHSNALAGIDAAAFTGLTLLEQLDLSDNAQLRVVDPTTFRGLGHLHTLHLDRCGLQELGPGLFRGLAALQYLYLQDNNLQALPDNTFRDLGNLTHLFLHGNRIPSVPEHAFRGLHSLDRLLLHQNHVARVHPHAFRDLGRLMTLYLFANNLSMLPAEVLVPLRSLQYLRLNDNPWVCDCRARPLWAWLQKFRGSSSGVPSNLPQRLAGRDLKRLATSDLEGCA
Briefly: Aβ42 effect on Biotin-Aβ40 binding to immobilized sNgR310. The note with it: dose-dependent, streptavidin HRP. From the text:
We examined whether the interaction between NgR and Aβ peptide has a role in aggregate formation. sNgR310 was immobilized on microtiter plates and Biotin-Aβ40 was applied along with Aβ42 peptide.

In experiment [3] the target is T3, sNgR310-Fc (Rattus norvegicus, UniProt Q99M75, A303T/C287S/C43R/E284G/T53A).
T3 construct: Fc portion of IgG (rat)
T3 sequence (Q99M75 27-310 C43R/T53A/E284G/C287S/A303T): T2 sequence (Q99M75 27-310 C43R/T53A/E284G/C287S/A303T)
Briefly: Competition of free Aβ with NgR ligands on sNgR310-Fc coated wells. Format: binding. To be noted: competition assay. As for the experimental part: We analyzed whether Aβ (1-28) binding competed for NgR binding with other known ligands for NgR by allowing 250 nM soluble AP-Aβ(1-28) or AP-Nogo (1-33) to bind to wells coated with purified sNgR310-Fc in the presence of various concentrations of competing free Aβ. […] We observed that the Aβ peptides bind to both sNgR310-Fc and sNgR344-Fc. […] However, Aβ(1-28) displaced Aβ-AP binding but not AP-Nogo-66 (1-33) or AP-OMgp binding in competition assays. The Aβ peptide may begin to displace AP-MAG very slightly at high concentrations in our experiments. Thus, the Aβ binding site on NgR appears largely distinct from that for the myelin ligands NogoA, OMgp and MAG. Consistent with this, the presence of Aβ had little effect on myelin or Nogo-66 inhibition of neurite outgrowth.

For experiment [4], the target named is T4, NgR (Homo sapiens, UniProt Q9BZR6).
T4 construct: expressed in transfected cells; host or cells: COS cells
T4 sequence (Q9BZR6 27-473): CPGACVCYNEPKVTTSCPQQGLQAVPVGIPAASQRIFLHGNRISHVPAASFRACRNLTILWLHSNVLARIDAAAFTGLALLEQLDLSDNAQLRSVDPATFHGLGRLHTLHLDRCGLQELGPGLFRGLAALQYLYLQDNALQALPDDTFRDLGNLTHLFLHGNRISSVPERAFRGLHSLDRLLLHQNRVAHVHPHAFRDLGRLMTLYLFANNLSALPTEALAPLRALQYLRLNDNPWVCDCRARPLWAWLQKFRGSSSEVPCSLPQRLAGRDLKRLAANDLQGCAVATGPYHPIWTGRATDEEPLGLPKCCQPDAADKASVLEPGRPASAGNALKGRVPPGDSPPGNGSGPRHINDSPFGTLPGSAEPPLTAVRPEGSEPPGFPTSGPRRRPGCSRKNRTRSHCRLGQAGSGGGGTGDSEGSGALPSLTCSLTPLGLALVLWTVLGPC
Briefly: AP-Aβ(1-28) fusion protein binding to NgR-expressing COS cells. To be noted: not to vector-transfected COS cells. From the text:
We then investigated whether the Aβ region of APP is involved in its interaction with NgR—including whether the fibrillogenic Aβ42-3 peptide binds NgR. We created two fusion protein constructs containing alkaline phosphatase (AP) and the hydrophilic region of Aβ (amino acids 1-28) by fusing the coding sequence in frame with the signal sequence-6×His-placental alkaline phosphatase (AP) sequence of the vector pAP-6 (Nakamura et al., Neuron 2: 1093-1100, 1988). The AP-Aβ and Aβ-AP proteins both bound to NgR-expressing COS cells but not to vector-transfected COS cells. This binding was saturable with an apparent Kd of 60 nM. The interaction also was detected using purified Biotin-Aβ(1-40) in an ELISA-type assay with immobilized NgR.

The target in experiment [5] is T5, NgR2 (Homo sapiens, UniProt Q86UN3).
T5 sequence (Q86UN3 47-390): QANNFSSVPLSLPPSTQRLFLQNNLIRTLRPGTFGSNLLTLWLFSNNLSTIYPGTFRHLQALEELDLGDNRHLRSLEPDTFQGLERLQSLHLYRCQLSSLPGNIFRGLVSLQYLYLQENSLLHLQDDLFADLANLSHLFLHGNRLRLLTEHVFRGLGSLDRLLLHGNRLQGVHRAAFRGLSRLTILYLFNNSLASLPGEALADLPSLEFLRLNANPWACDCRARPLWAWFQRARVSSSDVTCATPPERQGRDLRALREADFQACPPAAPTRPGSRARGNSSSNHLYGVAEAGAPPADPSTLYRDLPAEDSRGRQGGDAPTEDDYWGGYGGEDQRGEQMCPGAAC
Put plainly: Aβ-AP binding specificity, NgR2. From the text: (§1) The specificity and selectivity of the Aβ(1-28) interaction with NgR was probed in several ways. The interaction was specific for NgR1 because neither NgR2 or NgR3—which share sequence similarity with NgR—bound Aβ-AP. Further, we observed species specificity: human NgR binds human AB to a greater extent than mouse NgR binds human AB or human NgR binds mouse AB or mouse NgR binds mouse Aβ.

The target in experiment [6] is T6, NgR3 (Homo sapiens, UniProt Q86UN2).
T6 sequence (Q86UN2 25-420): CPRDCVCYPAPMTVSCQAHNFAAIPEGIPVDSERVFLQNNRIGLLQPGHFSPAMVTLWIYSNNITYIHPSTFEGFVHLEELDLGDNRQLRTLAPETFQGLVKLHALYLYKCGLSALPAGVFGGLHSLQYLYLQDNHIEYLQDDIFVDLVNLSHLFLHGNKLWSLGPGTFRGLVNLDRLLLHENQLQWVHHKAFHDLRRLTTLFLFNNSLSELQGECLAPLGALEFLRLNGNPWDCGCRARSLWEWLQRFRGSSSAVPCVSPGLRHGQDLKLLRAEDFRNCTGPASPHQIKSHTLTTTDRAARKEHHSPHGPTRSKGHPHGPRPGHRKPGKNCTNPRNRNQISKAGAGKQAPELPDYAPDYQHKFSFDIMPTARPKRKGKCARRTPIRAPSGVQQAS
Put plainly: Aβ-AP binding specificity, NgR3.
From the text: as §1

Experiment [7] deals with T1, human NgR1. Briefly: Fluo-Aβ42 binding to SKNMC cells expressing human NgR-1. The note with it: 2 h at 4° C.

On to “Aβ42 peptide: fibrillogenic Aβ42 peptide”, for which the “effect on binding of Biotin-Aβ40 peptide to cells” value in experiment [1] is “enhanced”. In experiment [2], the “effect on binding of Biotin-Aβ40 peptide to immobilized sNgR310” value is on record as “enhanced”.
Consider “Aβ(1-28): free Aβ peptide, amino acids 1-28, used as competitor”, for which, in experiment [3], the “displacement of AP-Nogo-66 (1-33) binding” value is reported as “not”, the “displacement of AP-OMgp binding” value is listed as “not” and the “displacement of Aβ-AP binding” value was “displaced”.
Regarding “Aβ-AP: fusion protein of the hydrophilic region of Aβ (amino acids 1-28) and alkaline phosphatase (AP)”, the “binding to NgR-expressing COS cells” value in experiment [4] is “bound”. The “binding to NgR2” value in experiment [5] is on record as “neither”. For the same substance, the “binding to NgR3” value in experiment [6] is “neither”.
On to “Fluo-Aβ42: labelled fibrillogenic Aβ42 peptide”, for which the “binding to SKNMC cells expressing human NgR-1” value in experiment [7] was “binds”.
